# The domain aggregation screens of Martell et al. (2025)
# Assay: soluble fraction after stress (log2 fold change); higher = more stays soluble; pooled small domains, quantitative proteomics
# Conditions: stress: 75 degC
# 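Further: 20 min heating vs room temperature control held 20 min.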
row,Sequence,soluble fraction (log2)
1,HMAVSTFGRITASSLNVRSGPSTDHEKVGSLAAGRVVELLEESDGWYRIENGYISTEYVTIVDPSQ,-0.715
2,HMAVTEVKTTAVVNMRSSDSEKADKLGKAQIGDTFRVLEQRANGWTKLTDGTQEFFIKSEYLEAIA,0.109
3,HMAVVAPLAGSVARVLVADGDEIEAGQVLLVLEAMKMETEITAPKAGKVGAILVGKGDSVQGGQGLR,-0.18
4,HMAYLTGFHAIEELIRAGKAKGPLLVANAGPRARTIMSLATDNKIRIDRLGEHELNRLAPGNRGIALYVE,-0.898
5,HMDAAYVYVIGTRVNQRAGPSTSNAVMGVLSEGTRVETLRDEGQWTQIRSNFGTGWMSSSFLSSVAP,-1.28
6,HMDADRILHKTLKPRELEIYQLIKAYLEEHSQIANAKVQEISGLSEATTRRYLNIFVEFGLLKTS,-0.214
7,HMDADTVGQIRVVKQILDDGRLIVVDASGNPVLVRRSSALSLTAISQGDRIIVDPSVRLAIELLPNE,-0.637
8,HMDAEELNSKAKDEFTWLEDDESETNLEYRKMVSSEDMAIVAKVAPALAAKLKYQLAHAATNMV,0.149
9,HMDAEVEHLFRIIAELKEKNVAIIYISHKMDEIFRISDDITVYRDGEYIATDRAENLNVDKVIQLMVGREV,-0.429
10,HMDAEWRTLTLAPEQHQQRLDRALADSLPEFSRSYVQQLIDTGMVRVNGVLAAKSAQRVKALDQVQVELR,-0.411
11,HMDAGIVVPDTYNKPLAEAVASLEGEGFRTEKKEGYSDTVAKGNVMSQNPEAGTNAERGSTVTIVISQGPQ,0.455
12,HMDAINYEDFQLLIKQRGSFKVAFEDIMFSTKVAIEKKEDFYDFVTKLIDNGFNNMAYNYLEGFQD,-2.07
13,HMDAISYTQFMEEAKQGRINKVEVQGRTLMVTPTDGKAYSLTSPGDLWMTTDLMKYGVNVYGAE,0.0525
14,HMDALKAVYQWVTRTMMKNQTGVMQTLPNRDLIELNTQITAQRLMQAGVDPTTLKNANQVENAVNIIESR,-0.69
15,HMDAMGAVGIARAFISAGERGGDISDGLEHMHGKLLRLSSLMYTRSGKKMAARRHELLSSFVQALEEEIK,-0.327
16,HMDAMQAFPNPTVDEIHFVTPTTGRVYNAHGQLVMVLKNAQLVNVRQWSAGQYVIVREDGYAVRWIK,-1.3
17,HMDAPQRVTYLLPHSRGEVVSWLHRQGEVVAQEYEAEGVRVVVDLRYAQIRQAAKQFDVLPAEG,-1.24
18,HMDAPRFAAGDAVRVAGLVSKPQHNGRAGSVLSYDPVSLRYIVKVDGEDEPLKLKPENVLMPA,0.11
19,HMDAQLRVPDLTPYNYSELKENTSLYEGFTIEVVEERSTGDYAAGTVLDQDPKADTLIQDGDSTVIKLVIA,0.151
20,HMDASFTYSLETHPAGVLVRVDGLEYETPFSILLPQGVHRLEVAGEERFFYLSETTHQFLEID,-2.9
21,HMDATGDPIADRILQALQLGELTRTQVNNVFQRHLAAARISQALNFLRSLKRADMRMEETAGRSGEVWFAI,-0.454
22,HMDAVKKKVQSTNTLLDVLKQMLPQTSSNTLRKMLTNQRITVDGETIHRAKHTVEKDQTVEIHPKP,0.215
23,HMDAVSYTQFMQDAKAGRIKKVIVHQSGILDVTTTEGRRFNLTSPGDLWMVGDLVKDGVDVVGAP,-0.234
24,HMDAVTYAKGSSGETVREIQQLLLDWGYYSGEVDGIFGSRTEDAVEYFQRKNGLTVDGKVGPATLEALGIS,-0.0808
25,HMDAYMIGHNIAKWRKEKGMTQDQLAEHLSVSGQAVSKWENGASLPDIAILPKLAEIFDVTMDQLFSR,0.0534
26,HMDDAIAEKTGGAVSSVNQRQAILDHIREAYGIELESLRSTDIERYLDDPEIPEPVKDILRDRLRGAK,0.204

row,Sequence,soluble fraction (log2)
1,HMDDDAELLLKKLSAAGGELPFHDRSEPAEIEAAFGLSKSAFKRALGKLLKAGKVVKTQQGIQLK,0.162
2,HMDDDIKNALDVLPEQYRMTVYYADVEGLAYKEIGAIMNTPIGTVMSRIHRGRSQLRVLLAAVAADR,0.316
3,HMDDFITLVIHTPAHAQNLRNILESHGMEVRLEDFVSFKSPVAVAQRVKIRPKDLPLALKIIESGE,0.19
4,HMDDFVEIDGKKYEIDMSFDNILRLFDLLKDKSLNDVTKIETGLIMLIDDSLDDYDTEEKADIFVQIF,-0.411
5,HMDDGALQIRLGPQALQQRLDKLGYSLNKEDLDLVYQYFLHSADSKGAVYDQELRELMGEAGVE,-0.102
6,HMDDIHTFVYETETPFDPQKLDRYIGSLTAVYGQDMLRYKGILYFAGVDRRVVFQGVHMLAV,-0.0939
7,HMDDILAYEIEDKEDLENLSLGKSIGINLNKLIKPTLNSFDNSLLFLSKKGNIISYGKLNGDLFKPKKVL,0.346
8,HMDDINVSNSKNIVPNVTGHTGSKAIPVLENLGLDVQYSGFGKVTNQSIPAGTRFKKGETIYLMLE,0.03
9,HMDDIVFPNPTKNQINVSIDGLKNIYNLSGKLLISTNDKIIDVSILKAGVYFINTNEQFYKFVK,-1.41
10,HMDDIVPHSTKNHIIKTFLSLMNSLDIITDKNKKSLNQNVHIIFNKFNFSKKEANLFIGVLNRIQKALK,0.602
11,HMDDLFGNAIEMFNNQRYDMTYELLVQLLSETPNNEKAWQLLADTKFMLGDYDDALHIVGKAAK,-1.05
12,HMDDPWHNLANAIVAVAADDYRSALRNEDEGLLKSLELFFHSEWYRILTDVDADRLLGMLRRERS,-1.71
13,HMDDTPLNNVIKKIAALPENITLADKSAVLSAWEAYQALSVNLKAQVSNSELLIKAYETILQLEGEDQIK,0.437
14,HMDDYRIEDMMTVVEEQVIRQKETNLSWFFKRAGSLNEIITIFLAALELIKVHRVYVKQEHNFDDIILRKE,0.305
15,HMDEAAGVLTQLRAFIAASNLSPGLRLPPERELAEQLGVTRAELRKALAVLEAEGLLWRQVGKGTFYGARP,-1.35
16,HMDEAEELYQAVQALKPKYREVILLHYYQGLRVGEIAAILRAPQSTVSIRLRRARQMLNRMLG,-0.701
17,HMDEALLRATLLDVLVKHHPKIGDKLDVVFALAKAWVSSGSDDDFEVLEKYMERLKPDEALMLASGFSNML,-0.886
18,HMDEDTWKLYKRAYKKYYARYMKGNMSEAAFKAWGEQAAADRDAAIEQLRATTDAALSASIIQQLKEKLNR,-0.995
19,HMDEEDVLNELIRRLALTADDRLLLSLSYEDGLSSRKIATLLETSAATVQRRLAGLHHQLEQALRVMGLA,-0.323
20,HMDEEGDALDREYEDQIRLGDEAFDAEDWTSAQRAYTAALELRPDERYPKNRLRRLASLQEDV,0.245
21,HMDEETVALQKAIHSLPPKQQAVFNMRYYDEMSFREIADANETTESSAKANYHFAKAKIIEQMKR,0.113
22,HMDEILHHPSYRAIYEYMLDHKHVKTKDIAALLNVKEPRARQLLKEMIDKHFIIALGSNRNREYELL,-0.94
23,HMDEKSGWLHLAPHEGALRAALYAEHAVQEERTAPDGSQWLRLVLREKHYHQIQSKYNRRLTLHTQPDPS,-2.58
24,HMDENDPYEILEIDRLASDDQVKAKYRALIRENHPDVLMAKGVPQEFIDLANRKMAVINAAYDRIEKEREF,0.122
25,HMDEPGAGYKWREDVLLRVMASHGIEESLRDDFVRHAVGFDNDDNMYLKKVEIENAAAAWVAN,-0.359
26,HMDETELLLQKAIATLPDKQRVVFNLKYFDEMKYEEMSELLETSVGALKASYHLAVKKIEQFFHDA,-0.555

row,Sequence,soluble fraction (log2)
1,HMDETYRRQLEDLAREHGAEYLHGILREVDPASAEAIHANNIKRVIRALEFYHLSGKKISEHNETERQ,-0.12
2,HMDEVHYLADKERGTTWEEILIHADRDIKFLSLSATINNKNEFLEWLVSLRGTTSLIHSSTRPIPLEI,0.231
3,HMDEVLDQFVRGQIYGYIRANPGDIYSSIRDNLGLKNGVTTYHLDVLAREEYVYSEIDGTNRRFYPSGWEE,-2.77
4,HMDEVVVVERGGVQITMSEIDAKIMELPVDVRPSYLDSPERLQNFVSNLLLEKQAAQLKSQY,-0.142
5,HMDEWDPAILYVGLDYEDAAQIATRLATSGVPYRLSPDGTMITVPDDQVNNMRLTLAGEGFPH,-0.0325
6,HMDEYFNPETVVHYLRELFDTYRENGGNPFEWFHSTFESVNLNPQNYRKDLITTIEKALIEWIEIFEKQ,-0.697
7,HMDFDPDVPSREDILQAFRDSKPPLTVNALISEFGLSRDASIVGLERRMGAMQRDGQLEQTPSGWQLSV,-0.164
8,HMDFFVLVGAYKTPDEAETIRAKIAFSGLDSSVSHGNDGRYRVRIGPFHSEGDARKAQSTLRANDIPGQII,-1.01
9,HMDFGMPEELQKKLDKMPALKAAFEALTPGRQRGYIFYFSQPKQSKTRELRIEKSIEQIMNGKGLND,-0.414
10,HMDFIEYIISEESKGLRADQAISMENDKFSRSLIQKWIKKGRVLVNGRKIKPKDIVNLNDKITINPEESIN,-0.36
11,HMDFITPYEIEQGQYEGAELYEDGKFEEAFSLSSIAAQRGMKTAQYLLGIMFLKGEYVDQSLAIGMAW,-0.52
12,HMDFPYISGIEIAAIKNREFIRIETDKAQEIAIALDKSGIPFSARFSDAEMVLTYDGSYKEQVEDIIAKA,-0.705
13,HMDFSERLARAMSLAGYTQGRLAKEVGMAQSSVNKLLNGANGSRKTVEIASVLGVRPEWLSTGAGEML,-0.546
14,HMDFSSRLKDERKRLKLSQAQLGEAGGVSKDAQLNYENGSRSPSASYLELIAREGVDVQFLLTGKRS,0.155
15,HMDFSYTVGDIDEPIDSRGNSVIMLRKLAWGSNAEKLEIRRWIIDIDSERANKGVTFLTEEGPHNLVRV,0.272
16,HMDFTISDADFHRLVQFIQQNYGVALSKKRQLISSRLSHSLRELGYKDFRTFLEHLFSTRDPADLELVLNK,-1.59
17,HMDFYVILGVDRAASLSDVKRAYRRLARKHHPDINPGDPESDAFFMRVTEAYETLVDPDRRQEYDEHG,-0.75
18,HMDGEFINLKNRAGTEIEARILNYQNGQVKLERKDGVTFVVSISMFDAKSVIAINHKIAEIIDT,-2.28
19,HMDGIDALEPLMRRVFEALPQRRSMTIERAAVAAGLDEESVKIALVRLQLEGYVANDERGWHRSKSPH,-2.48
20,HMDGIGLRVRMIREGVGLTQKQLAEHLGMQRTALVQVEAGSRKLSASELIGVARFFNITVEQFLDPEK,-3.5
21,HMDGIPVPDVKGTVEAEATATLKNSGFEVTKTQDFSDTVEAGKVISQNPAGGSSAASGSSVTLVISQGPN,-0.0786
22,HMDGISANAVKALIESLIAGEDKRKPLSDQAMSDRLALQGIVLARRTVAKYREELNFPPAHQRKQK,-1.41
23,HMDGLPYPEAAEEPIAQVARNLGMDATRVSIALQEAKLIFRNLDETLAEIAANNGTTPQVVYDAIRHLEPP,-0.248
24,HMDGLTEQQADDILAFISIKGTNAEVLAALENYAGRNETFDTGLSELKVVASNLAAFGMPEENFVVDL,0.283
